B1: hSLIV 9 bp stem (structured_RNA)
RNA: GGGCCCGGUAUUGCAGUACCUCCGGGUCC
B2: hSLIV 6 bp stem (structured_RNA)
RNA: GGACCUAUUGCAGUACCUGGUCC
B3: hSLIV 2AP9 (structured_RNA)
RNA: GGCCGUAUUGCAGUACCUCGGCC
modifications: 2-aminopurine at position 15 (loop A9), written as A
B4: hSLII (structured_RNA)
RNA: GGGCUGCCAUUGCACCUCGGCGGUCC
B5: dSLIV (structured_RNA)
RNA: GGGCCCGGUAUUGCAGUACCGCCGGGUCC
B6: dSLIV 2AP9 (structured_RNA)
RNA: GGCCGUAUUGCAGUACCGCGGCC
modifications: 2-aminopurine at position 15 (loop A9), written as A

target: T1, U2B" (Homo sapiens, UniProt P08579 1-225); experiment: filter binding
T1 sequence (P08579 whole entry): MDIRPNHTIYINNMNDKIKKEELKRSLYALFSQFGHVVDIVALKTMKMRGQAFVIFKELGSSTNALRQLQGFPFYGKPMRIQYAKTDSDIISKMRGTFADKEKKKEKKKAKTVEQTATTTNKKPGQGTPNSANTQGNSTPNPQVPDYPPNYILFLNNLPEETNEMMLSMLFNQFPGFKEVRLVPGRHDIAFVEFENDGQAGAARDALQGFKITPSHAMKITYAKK

Binder	Kd [nM]
B1	1
B2	2
B3	2
B4	2.1
B5	2

target: T1, U2B"; experiment: filter binding; remark: another data set of the same source

Binder	binding result
B6	binds

Source: article PMC3166965
